The target in one data set is T1, mSNAPc#2 SNAP50-R151A (Homo sapiens, UniProt Q5SXM2;Q92966;Q16533;O75971 1-505;1-411;1-268;1-98, R151A).
T1 sequence 1: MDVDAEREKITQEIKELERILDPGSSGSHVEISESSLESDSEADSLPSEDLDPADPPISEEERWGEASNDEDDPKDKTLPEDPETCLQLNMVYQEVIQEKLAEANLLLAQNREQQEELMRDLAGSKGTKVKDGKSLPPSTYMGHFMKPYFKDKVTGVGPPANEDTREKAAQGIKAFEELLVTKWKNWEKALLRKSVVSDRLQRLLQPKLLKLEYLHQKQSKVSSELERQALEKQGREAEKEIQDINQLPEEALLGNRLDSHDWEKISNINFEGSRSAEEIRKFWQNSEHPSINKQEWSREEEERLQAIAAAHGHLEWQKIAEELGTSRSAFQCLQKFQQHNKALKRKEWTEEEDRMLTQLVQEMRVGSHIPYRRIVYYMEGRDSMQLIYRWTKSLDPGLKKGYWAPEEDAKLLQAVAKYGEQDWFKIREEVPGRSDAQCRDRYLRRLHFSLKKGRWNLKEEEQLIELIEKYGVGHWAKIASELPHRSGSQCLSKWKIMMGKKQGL
T1 sequence 2: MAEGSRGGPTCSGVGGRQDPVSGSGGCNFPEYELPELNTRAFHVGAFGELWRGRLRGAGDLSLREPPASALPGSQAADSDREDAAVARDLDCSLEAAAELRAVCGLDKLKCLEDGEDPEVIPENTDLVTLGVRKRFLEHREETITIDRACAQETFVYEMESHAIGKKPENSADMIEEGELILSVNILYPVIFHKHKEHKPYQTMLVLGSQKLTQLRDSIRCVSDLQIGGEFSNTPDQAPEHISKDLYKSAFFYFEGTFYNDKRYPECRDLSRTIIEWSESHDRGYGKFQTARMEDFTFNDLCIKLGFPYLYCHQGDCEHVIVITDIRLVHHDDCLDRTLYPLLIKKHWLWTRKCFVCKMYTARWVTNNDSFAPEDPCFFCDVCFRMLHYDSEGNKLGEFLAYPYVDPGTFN
T1 sequence 3: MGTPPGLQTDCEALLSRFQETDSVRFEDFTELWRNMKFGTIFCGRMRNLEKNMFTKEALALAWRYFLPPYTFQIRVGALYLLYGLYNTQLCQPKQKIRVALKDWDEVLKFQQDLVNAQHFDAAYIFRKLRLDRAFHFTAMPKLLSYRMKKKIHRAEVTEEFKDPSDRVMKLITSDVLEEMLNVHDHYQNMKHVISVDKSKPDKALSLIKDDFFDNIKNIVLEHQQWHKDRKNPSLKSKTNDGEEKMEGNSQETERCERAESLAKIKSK
T1 sequence 4: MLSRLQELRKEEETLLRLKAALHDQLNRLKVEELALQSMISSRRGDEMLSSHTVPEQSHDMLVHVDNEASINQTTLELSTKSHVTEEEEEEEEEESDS
Briefly: SPR; EMSA: 100 mM KCl, 25 mM HEPES-K pH 7.6, 12.5 mM MgCl2, 10 uM ZnCl2, 0.1 mM EDTA, 10% glycerol, 3 mM DTT, 0.5 mM PMSF, 50 nM DNA, RT 30 min; SPR: 100 mM KCl, 12.5 mM MgCl2, 10 uM ZnCl2, 0.1 mM EDTA, 0.05% P20, 25 C. Particulars: protein: recombinant; tags: as P1; copies: 1;1;1;1.

For the next data set, the target named is T2, mSNAPc#2 SNAP190-Y389A (Homo sapiens, UniProt Q5SXM2;Q92966;Q16533;O75971 1-505;1-411;1-268;1-98, Y389A).
T2 sequence 1: T1 sequence 1 with Y389A
T2 sequence 2: T1 sequence 2 with A151R
T2 sequence 3: T1 sequence 3
T2 sequence 4: T1 sequence 4
Described as above. Particulars: protein: recombinant; tags: as P1; copies: 1;1;1;1.

The target of another data set is T3, mSNAPc#2 WT (Homo sapiens, UniProt Q5SXM2;Q92966;Q16533;O75971 1-505;1-411;1-268;1-98).
T3 sequence 1: T1 sequence 1
T3 sequence 2: T1 sequence 2 with A151R
T3 sequence 3: T1 sequence 3
T3 sequence 4: T1 sequence 4
Briefly: SPR; protein immobilized; EMSA: 100 mM KCl, 25 mM HEPES-K pH 7.6, 12.5 mM MgCl2, 10 uM ZnCl2, 0.1 mM EDTA, 10% glycerol, 3 mM DTT, 0.5 mM PMSF, 50 nM DNA, RT 30 min; SPR: 100 mM KCl, 12.5 mM MgCl2, 10 uM ZnCl2, 0.1 mM EDTA, 0.05% P20, 25 C. Conditions: protein: recombinant; tags: FLAG N-term SNAP190; 6xHis N-term SNAP43; copies: 1;1;1;1.

These results are taken from article PMC9652321, “Structural basis of human SNAPc recognizing proximal sequence element of snRNA promoter”.

Positions count from the first letter of the chain named.

B1: 25 bp hU6-1 PSE (SPR) (dsDNA)
DNA 1: TGCTTACCGTAACTTGAAAGTATTT
DNA 2: AAATACTTTCAAGTTACGGTAAGCA
Consider B1, for which the Kd with mSNAPc#2 SNAP50-R151A came out at 1150 nM; in the data set with mSNAPc#2 SNAP190-Y389A it was 1080 nM; with mSNAPc#2 WT it was 289 nM.
